Results published in paper PMC12700550, “DLL4^+ neutrophils promote Notch1-mediated endothelial PANoptosis to exacerbate acute lung injury in sepsis” (The Journal of Clinical Investigation, 2025).
Where “and” joins values, the source holds several entries; their conditions need not be identical. Equal values may be shown once.

B1: eCIRP: extracellular cold-inducible RNA-binding protein; recombinant murine, produced in our laboratory (protein, UniProt P60824 1-172, looked up)
Cold-inducible RNA-binding …: MASDEGKLFVGGLSFDTNEQALEQVFSKYGQISEVVVVKDRETQRSRGFGFVTFENIDDAKDAMMAMNGKSVDGRQIRVDQAGKSSDNRSRGYRGGSAGGRGFFRGGRSRGRGFSRGGGDRGYGGGRFESRSGGYGGSRDYYASRSQGGSYGYRSSGGSYRDSYDSYATHNE

Columns and labels:
[1] = test system: c-caspase-3; test: c/t caspase-3 in lungs of CLP mice, Western blot; type: in vivo, mouse; settings: 10 mg/kg NDI, 20 h; for lung c/t caspase-3 (Figure 5E): individual mice, 10 mg/kg
Protocol: Sepsis was induced in mice by cecal ligation and puncture (CLP) as described previously ([45], [46]). Mice were anesthetized with isoflurane to a surgical plane and placed in a supine position. CLP was performed through a midline laparotomy. The abdomen was shaved and disinfected. Through a 2 cm midline incision, the cecum was exposed and then ligated with a 4-0 silk suture 1 cm proximal from the distal cecal extremity. For 20-hour CLP experiments, the cecum was punctured twice with a 22-gauge needle. A small amount of cecal content was extruded through both holes, and the ligated cecum was returned to the peritoneal cavity. The wound was closed in layers. For 10-day sepsis survival studies, the cecum was punctured once with a 22-gauge needle. A small amount of cecal content was extruded. Mice were allocated to the vehicle and adoptive transfer of DLL4^+ neutrophils or DLL4^– neutrophils groups. […] Vehicle groups received an equivalent volume of PBS, while treatment groups received NDI 10 mg/kg in […] PBS via retro-orbital injection after CLP. This dose was chosen primarily on the basis of our laboratory’s prior experience, we have consistently used this dose in mouse CLP models with reproducible efficacy and without observable toxicity ([39], [44]). Sham-operated animals underwent a laparotomy without CLP. After closure, the mice received a subcutaneous injection of 0.5 mL of normal saline to overcome surgery-induced dehydration. For 20-hour experiments, animals were not injected with antibiotics; however, for survival studies, animals were given 0.5 mg per kg body weight imipenem (lot 4D21K05, WG Critical Care LLC) subcutaneously in 0.5 mL saline once at the end of CLP. All mice were subcutaneously injected with a single dose of 0.1 mg/kg buprenorphine after CLP.
PVECs and lung tissue were collected in previous steps. Whole-cell proteins were extracted, and the protein concentration was measured using an ABC protein assay kit (catalog 5000002, Bio-Rad). […] Bands were detected using an Odyssey FC Dual-Mode Imaging system 2800 (LI-COR).

[2] = test system: DLL4 expression on WT BMDNs; test: Frequency of DLL4^+ neutrophils (Ly6G^+DLL4^+), WT mouse BMDNs, flow cytometry; type: cell-based; settings: for percentage of DLL4^+ neutrophils (Figure 1C): eCIRP 1 μg/mL, WT BMDNs 1 × 10^6/mL
Description: Mice were anesthetized by 2% isoflurane inhalation, and the femora and tibiae were dissected. The bone marrow was flushed out with calcium- and magnesium-free HBSS using a 25-gauge needle into a Petri dish. Suspensions of cells were filtered through a 70 μm cell strainer (Corning), and bone marrow–derived neutrophils (BMDNs) were purified by negative selection using the EasySep mouse neutrophil enrichment kit (catalog 19762, STEMCELL Technologies). The purity of the sorted neutrophils was assessed by staining of the cells with APC-Ly6G antibody (clone 1A8, BioLegend) using a BD LSRFortessa flow cytometer (BD Biosciences).
In the time course experiments, BMDNs (1 × 10^6) were stimulated with eCIRP (1 μg/mL) for 2, 4, 6, and 12 hours. In the dose-response experiments, BMDNs (1 × 10^6) were treated with 0, 0.2, 0.5, or 1.0 μg/mL eCIRP for 12 hours. Single-cell suspensions were then stained with APC-conjugated anti–mouse Ly6G (clone 1A8, catalog 127614, BioLegend) and PE-conjugated anti-DLL4 (clone HMD4-1, catalog 130807, BioLegend), and analyzed by flow cytometry (BD LSRFortessa, BD Biosciences) to detect DLL4^+ neutrophils (Ly6G^+DLL4^+). Unstained cells were used to set voltages, and single-color controls were applied for compensation adjustment. Two hundred fifty microliters of whole blood obtained from sham, CLP, and PBS- or NDI-treated mice was taken into Falcon 15 mL conical tubes, and 5 mL red blood cell (RBC) lysis buffer (BD Biosciences) was added. After 1–2 minutes of incubation at room temperature, the samples were centrifuged at 300g for 10 minutes. Supernatants were aspirated, and the cell pellet was washed by suspension of the cells in 5 mL fluorescence-activated cell sorting (FACS) buffer containing 2% fetal bovine serum and centrifuged at 300g for 10 minutes. The supernatant was discarded, and the cell pellet was dissolved in […] FACS buffer. Lung tissues were finely diced using a sterile surgical blade and suspended in Ca^++- and Mg^++-free Hanks balanced salt solution (HBSS; Corning). Tissue digestion was performed in HBSS containing 100 U/mL of collagenase I (Worthington Biochemical) and 20 U/mL DNase I (Worthington Biochemical) at 37°C for 30 minutes with periodic shaking. Digested tissue fragments were crushed with a 10 mL syringe plunger and passed through a 70 μm cell strainer (Corning). Lysis of RBCs in lung cell suspensions was conducted using RBC lysis buffer (BD Biosciences). The isolated lung cells were counted using a microscope (Eclipse TS100, Nikon). To detect mouse DLL4^+ neutrophils, single-cell suspensions were stained with anti-mouse APC-Ly6G (clone 1A8, catalog 127614, BioLegend) and PE-DLL4 (clone HMD4-1, catalog 130807, BioLegend) and assessed for the detection of DLL4^+ neutrophils (Ly6G^+DLL4^+) by flow cytometry (BD LSRFortessa, BD Biosciences). Unstained cells were used to establish the flow cytometer voltage setting, and single-color positive controls were used to adjust the compensation. The acquisition was performed on 50,000 events using a BD LSRFortessa flow cytometer (BD Biosciences), and data were analyzed with FlowJo software (Tree Star). BMDNs were stimulated with eCIRP ([…]) for 2 hours. This time point was selected to maximize the viability and functionality of DLL4^+ neutrophils for downstream experiments, given their relatively short lifespan. After stimulation, cells were washed with PBS and resuspended in 1 mL FACS buffer, and DLL4^+ neutrophils (Ly6G^+DLL4^+) and DLL4^– neutrophils (Ly6G^+DLL4^–) were sorted by flow cytometry using a BD FACSAria IIu cell sorter (BD Biosciences).

Molecule | lung c/t caspase-3 (Figure 5E) ([1]; DLL4^+ neutrophils + CLP) | effect on lung c-caspase-3 ([1]; DLL4^+ neutrophils/sepsis) | lung c/t caspase-3 (Figure 5E) ([1]; DLL4^– neutrophils + CLP) | percentage of DLL4^+ neutrophils (Figure 1D) ([2]; 0.2 μg/mL rmCIRP, 12 h, WT BMDNs, individual replicates) | percentage of DLL4^+ neutrophils (Figure 1D) ([2]; 0.5 μg/mL rmCIRP, 12 h, WT BMDNs, individual replicates) | increase in DLL4^+ neutrophils compared with baseline ([2]; 1 μg/mL eCIRP, 12 hours) | percentage of DLL4^+ neutrophils (Figure 1D) ([2]; 1 μg/mL rmCIRP, 12 h, WT BMDNs, individual replicates) | frequency of DLL4^+ neutrophils (Figure 1E) ([2]; WT BMDNs, 1 μg/mL eCIRP, 12 h, individual replicates) | percentage of DLL4^+ neutrophils (Figure 1C) ([2]; 2 h, individual replicates) | percentage of DLL4^+ neutrophils (Figure 1C) ([2]; 4 h, individual replicates) | percentage of DLL4^+ neutrophils (Figure 1C) ([2]; 6 h, individual replicates) | percentage of DLL4^+ neutrophils (Figure 1C) ([2]; 12 h, individual replicates) | effect on frequency of DLL4^+ neutrophils ([2]; mouse BMDNs)
ECAGSPCHNGGTCEDGI [NDI] | 0.946 and 0.8954 and 1.049 and 0.8952 and 1.09 and 1.113 and 0.9785 and 0.9235 and 1.192 | attenuated the expression/activation | 1.224 and 1.151 and 0.8027 and 0.9965 and 0.8798 and 1.281 |  |  |  |  |  |  |  |  |  | 
B1 |  |  |  | 6.79% and 7.39% and 5.07% and 2.01% and 1.58% and 2.94% | 9.65% and 8% and 2.23% and 3.04% and 4.63% and 3.6% | greater than 10 fold | 9.46% and 10.2% and 10.3% and 9.59% and 14.64% and 11.2% and 19.6% | 10.6% and 7.8% and 13.4% and 4.22% and 4.99% | 2.37% and 2.69% and 2.61% and 1.38% and 2.29% and 2.02% | 2.2% and 3.33% and 2.32% and 3.85% and 1.73% and 1.34% | 5.6% and 3.69% and 4.86% and 3.28% and 2.75% and 2.78% | 25.8% and 23.2% and 5.76% and 10.3% and 13.1% and 19.7% | significantly increased the frequency (percentage) of DLL4^+ neutrophils in a time- and dose-dependent manner
